This is an account of results in the nanobody polyreactivity screen of Harvey et al. (2022).

A short description of the series: yeast display, Sf9 membrane polyspecificity reagent, FACS + sequencing; frameworks hold sequencing errors. In outline: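 Galactose induction of a Saccharomyces cerevisiae BJ5465 synthetic nanobody display library ran 36–48 hours. The cells were then stained for 1 hour at 4 °C with 10% biotinylated, detergent-solubilized Sf9 membrane reagent, pulled down on streptavidin microbeads and FACS-sorted into low and high (top ~1%) gates on expression and reagent-binding fluorescence. Labels for polyreactivity follow the gate of origin.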
For “QVQLVESVGGLVQAGGSLRLSCAASGSSIPYYAMGWYRQAPGKERELVARITWRSTSTYADSVKGRFTISRDNAKNTVYLQMNSLKPEDTAVYYCAVRLLSTYIIEYEHWGQGTQVTLSS”, the “polyreactivity (PSR sort gate)” value is “low polyreactivity”.

For “QVQLVESGGGFVQAGGSLRLSCAASGSIFDYYTMGWYRQAPGKEREFVAGISDSGGSTNYADSVKGRFTISRDNAKNTVYLQMNSLKPEDTAVYYCNAEYVGWFYKYDYWGQGTQVTVSS”, the “polyreactivity (PSR sort gate)” value is “high polyreactivity”.

With “QVQLVESGGGLVQAGGSLRLSCAASGFTGGRYAMGWYRQEPGKERELVDDISWSGGGTYYADSVKGRFTISRDNAKNTVYLQMNSLKPEDTAVYYCAAYWYRSYKRYGYWGQGTQVTVSS”, the “polyreactivity (PSR sort gate)” value is “high polyreactivity”.

With “QVQLVESGGGLVQAGGSLRLICAASGSTFPYYDMGWYRQAPGKETELVAAISWSGDSTYYADSVKGRFTISRDNAKNTVYLQMNSLKPEDTAVYYCAAYSDYWSYLSTDDYWGQGTQVTVSS”, the “polyreactivity (PSR sort gate)” value is “low polyreactivity”.

As to “QVQLVESGGGLVQAGGSLRLSCAASGSTFERYVMGWYRQRLGKKGSWLPVLNHNGGSTYYADSVKGRFTISRDNAKNTVYLQMNSLKPEDTAVYYCAASFRTVLDFGYWGQGTQVTVSS”, the “polyreactivity (PSR sort gate)” value is reported as “low polyreactivity”.

Turning to “QVQLVESGGGLVQAGGSLRLSCAASGITFQGNAMGWYRQAPGKERELVAAISSGGNTHYADSVKGRFTISRDNAKNTVYLQMNSLKPEDTAVYYCAASYYYTYYWGQGTQVTVSS”, the “polyreactivity (PSR sort gate)” value is “low polyreactivity”.

In the case of “HVQLVESGGGLVQAGGSLRLSCAASGRTFGAYTMGWYRQAPGKERELVAAINWSGGDTYYAYSVKGRFTISRDNAKNTVYLQMNSQKPEDTAVYYCNAEPRYGTYDYWGQGTQVTVSS”, the “polyreactivity (PSR sort gate)” value is reported as “low polyreactivity”.

Turning to “QVQLVESGGGLVQAGGSLRLSCAASGRTLSYYAMGWYRQAPGKEREFVAAITGSGGSTYYADSVKGRFTISRDNAKNNVYLQMNSLKPEDTAVYYCNATGLGVFTVEYYYWGQGTQVTVSS”, the “polyreactivity (PSR sort gate)” value is reported as “low polyreactivity”.

As to “QEQLQVSGGHLVQAGGSLRLSCAASGTIYGLTSMGWYRQAPGKEREFVAAITDGGNTNYADSVKGRFTISRDNAKKTVYLLMFCLKPEDTAVYYCAVLFSDDAYYAYWCQGTQVTVSS”, the “polyreactivity (PSR sort gate)” value is on record as “low polyreactivity”.

Turning to “QVQLVESGGGLVQAGGSLRLSCAASGSTLGVYVMGWYRPAPGKERELVAAISRNGGSTYYADSVKGRFTISRDNAMNTVYLQMNSLKPEDTAVYYCAARTVGRKAGFDYWGQGTQVTVSS”, the “polyreactivity (PSR sort gate)” value was “high polyreactivity”.

“QVQLVESGGGLVQAGGSLRLSCAASGNTFYANVMGWYRQAPGKERELVASITWSGGSTYYADSVKGRFTISRDNAKNTVYLQMNSLKPEDTAVYYCATSGDRLVWGQGTQVTVSS”: the “polyreactivity (PSR sort gate)” value is “low polyreactivity”.

Consider “QVQLVESAGGLVQAGGSLRLSCAASGRTFGRYAMGGYRQAPGKERELVAGISGSVGITYYADSVKGRFTISRDNAKNTVYLQMNSLKPEDTAVYYCAVVARAGHKYDYWGQGTQVTVSS”, for which the “polyreactivity (PSR sort gate)” value is on record as “low polyreactivity”.

Turning to “QVQLVESGGGLVQAGGSLRISCAASGITFTGYAMGWYRQAPGKEKELVAAIRGGGNTYYADSVKGRFTISRDNAKNTVYLQMNSLKPEDTAVYYCATSYASYTYWYDYWGQGTQVTVSS”, the “polyreactivity (PSR sort gate)” value is given as “low polyreactivity”.

With “QVQLVESGGGLVQAGGSLRLSCAASGLTFQSYDMGWYRPAPGKERELVAAISRRGGSTYYADSVKGRFTISRDNAKNTVYLQLNSLKPEDTAVYYCAAETYYTYWPYGMGYWGQGTQVTVSS”, the “polyreactivity (PSR sort gate)” value is “high polyreactivity”.

“QVQLVESGGGLVQAGGSLRLSCSASGITFKRYAMGWYRQAPGTERELVAAITISACSTYYADSVKGRFTNSRDIAKNTVYLQMNSLKPEVTAVYYCAAVSYGSWYYYWGQGTHVTVSS”: the “polyreactivity (PSR sort gate)” value is recorded as “high polyreactivity”.

Regarding “QVQLVESGGGLVKAGGSLRLICAASGFTFRAYAMGWYRQAPGTERELVAAINRRGGRTYYADSVKGRFTISRDNAKNTVYLQMNSLKPEDTAVYYCAAVKSGPSKGVGPPATAYDYWGQGTQVTVSS”, the “polyreactivity (PSR sort gate)” value is “high polyreactivity”.

Regarding “QVQLQESGGGLVQAGGSLRLSCAASGYISLAQTIGWYRQAPGKEREFVASIALGSSTYYTDSVKGSFTISRDNAKTTVYLQMNSLKPEDTAVYYCAARVGASYAHDYWGQGTQVAVSS”, the “polyreactivity (PSR sort gate)” value was “low polyreactivity”.

Consider “QVQLVESGGGLVQAGGSLRLSCAASGRTFVVNAKGWYRQAPGKEREFVAAISYRGDSTYYSDSVKGRFTISRDNAKNTVYLQMNSLKPEDTAVYYCAARVLGPGRRFYYWVQGTQVTVSS”, for which the “polyreactivity (PSR sort gate)” value is “high polyreactivity”.

Consider “QVQLVESGGGLLKAGGSLRLTCAASGRIFSSYDMGWYRQAPGKERELVAAISNSGGNTYYADSVKGRFTISRDNAKNTVYLQMNSLKPEDTAVYYCAAVAFWAIFDFYWYYPYEYDYWGQGTQVTVSS”, for which the “polyreactivity (PSR sort gate)” value is “high polyreactivity”.

Consider “QVQLVESGGGLVQAGGSLRLSCAASGFTFTYYAMGWYRQAPGKERELVAAISRNGGDTYYADSGKGRFTISRDNAKNTVYLQMNSLKPEDSAVYYCNARTPTDSTHFDYWGQGTQVTVSS”, for which the “polyreactivity (PSR sort gate)” value was “low polyreactivity”.

Regarding “QVQLVESGGGLVQAGGSLRISCAASGFIFVRYAMGWYRQAPGKEREFVAVISRRGGSTHYADSVKGRFTISRDNAKNTVYLQMNSLKPEDTAVYYCAAVRRVYSQNDYWGQGSQVTVSS”, the “polyreactivity (PSR sort gate)” value is on record as “high polyreactivity”.

On to “QVQRVESGGGLVQAGGSLRLSCAASGFIFEGNAMGWYRQAPGKERELVAAISWSGGRTFYADSVKGRFTISRDHAKNTVYLQMNSLKPEDTAVYYCAAQGRRYGYGDFYYWGQGTQVTVSS”, for which the “polyreactivity (PSR sort gate)” value was “high polyreactivity”.

Regarding “QVQLVESGGGLVQAGGSLRLSCAASGRTFRRYAMGWYRQAPGKERELVAAISSSTGRTYYADSVKGRFTISRDTAKNTVYLQMNSLKPEDTAVYYCNAVHRYERDYWGQGTQVTVSS”, the “polyreactivity (PSR sort gate)” value is listed as “high polyreactivity”.

As to “QLQLEESGGGLVQAGGSLRLSCAASGRTFRYYSMGWYRHAPGKEREMVAAISSSGDRTYYADSVKGRFTISRDNATNTVYIQMNSLKPEDTAVYYCANVPYYSRPHDYWGQGTQVTVSS”, the “polyreactivity (PSR sort gate)” value is listed as “high polyreactivity”.

Take “QVQLVESGGGLVQAGGSLRLSCAASGITFTKYVMGWYRQAPGKERELVATIRWGASSTHYADSVKGRFRISRDNAKNTVYFQMNSLKPEDTAVYYCNADCWYGAVYWWFYGFDYWGQGTQVTVSS”: the “polyreactivity (PSR sort gate)” value is “low polyreactivity”.

Consider “QVQLVESGGGLVQAGGSLRLSCAASGFIFDYYAMGWYRQAPGTEREFVAAITWDGGSTYYADSVKGRFTISRDNAKNTVYLQMNSLKTEDTAVYYCAAETWGEYGYWGQGTQVTVSS”, for which the “polyreactivity (PSR sort gate)” value was “low polyreactivity”.

As to “QVQLVESGGGLVQAGGSLRLSCAASGSIAGNAMGWYRQAPGKERELVATITRRGGRTYYADSVKGRFTISRDNAKNTVYLQMNSLKPEDTAVYYCNKVSYARGYDYWGQGTQVTVSS”, the “polyreactivity (PSR sort gate)” value is on record as “high polyreactivity”.

In the case of “QVQLVESGGGLVQAGGSLRLSCAASGFTFRQYAMGWYRQAPGKERELVAAISRSGSRTYYADSVKGRFTISRDNAKNTVYLQMNSLKPEDTAVYYCNAVFSTITGEYYWGQGTQVTVSS”, the “polyreactivity (PSR sort gate)” value is listed as “high polyreactivity”.

In the case of “QVQLVESGGGLVQAGCSLRLSCAASGFTYARYTMGWYRQAPGKERELVAAISSRGSSTYYADSVKGRFTISRDNAKNSVYLQMNCLKPEDTAVYYCAAPPRYGYDYWGQGTQVTVSS”, the “polyreactivity (PSR sort gate)” value was “high polyreactivity”.

Take “QVQLVESGGGLVQAGGSLRLSCAASGRIFWYYAMGWYRQAPGKEWELVATITYSGVRTYYADSVKGRFTISRDNAKNTVYLQMNSLKPEDTAVYYCAAVPGASVYGYYWKFGYWGQGTQVTVSS”: the “polyreactivity (PSR sort gate)” value is given as “high polyreactivity”.

For “QVQLVESGGGLVQAGGSLRLSCAASGLTFGSYAMGWYRQAPGKERELVAAISRSGGSTYYADSVMGRFTISRDNAKNTVYLQMNSLKPEDTAVYYCNAVNRYYAPTDRRVGYDYWGQGTQVTVSS”, the “polyreactivity (PSR sort gate)” value is reported as “high polyreactivity”.

As to “QVQLVESGGGLVQAGGSLRLSCAASGSTFYKYGMGWYRPAPGKERELVAAISGSGDSTYYADSVKGRFTISRDNAKNTVYLQMNSLKPEDTAVYYCNAGPWWYLHEYDYWGQGTQVTVSS”, the “polyreactivity (PSR sort gate)” value is on record as “low polyreactivity”.

On to “QVQLVESRGGLVQAGGSLRLSCAASGSTFTYNAMGWYRQAPGKERELDAAISSDGRTYYADSVKGRFTISRDNAKNTVYLQMNSLQPEDTALYYCAAMYWFYVYPFTEYDYWGQGTQVTVSS”, for which the “polyreactivity (PSR sort gate)” value is “low polyreactivity”.

As for “QVQLVESGGGLVQAGGSLRLSCAASGFTFPYYTMGWYRQAPGKERELVAAINRGGGSTYYADSVKGRFTISRDNAKNTVYLHMNSLKPEDTAVYYCACLRCLFPGRFDYWGQSTQVTVSS”, the “polyreactivity (PSR sort gate)” value is given as “high polyreactivity”.

As for “QVQLVESGGGLVQAGGSLRLSWAASGITFSRNAMGWYRQAPGKESELVATITSGGSTNYADSVKGRFTISRDHAKNTVYLQMNSLKPEDTAVYYCNAVWNNFISGRSYDYWGQGTQVTVSS”, the “polyreactivity (PSR sort gate)” value is on record as “low polyreactivity”.

Consider “QVQIVESGGGLVQAGGSLRLSCAASGTFTYYAMGWYRQAPGKERELVAAITWRGGNTYYADSVKGRFTISRDNAKNTVYLQKNSLKPEDTEVYYCAASLWPDYEYDYWGQGTQVTVSS”, for which the “polyreactivity (PSR sort gate)” value is recorded as “low polyreactivity”.

Consider “QVQLVESGGGLVQAGGSLRLSCAASGGIFVIYAMGWYRQAPGKERELVAAITWGGGTTYYADSVKGRFTISRDNAKNTVYLQMNSLNPEDTAVYYCNADGFVYGWYYYYEGYDYWGQGTQVTVSS”, for which the “polyreactivity (PSR sort gate)” value is “low polyreactivity”.

Take “QVQLVESGGGIVQAGGSLRLRCAASGSTFYLNVMGWYRQAPGQERELVAAISSGDGSTYYADSVKGRFTISRDNAKNTVYLQMNSLKPEDTAVYYCAAEPDTEVDYDYWGQGTQVTVSS”: the “polyreactivity (PSR sort gate)” value was “low polyreactivity”.

In the case of “QVQLVESGGGLVQAGGSLRLSCAASGFTFRWYAMGWYRQAPGKERELVAAISSGGGSTYYADSVKGRFTISRDNAKITVYLQMNSLKPEDTAVYYCNSRGTRIASGHYYWGQGTQVTVSS”, the “polyreactivity (PSR sort gate)” value is “high polyreactivity”.

“QVQLVESGGGLVQAGGSLRLSCAASGRIFVYNVMGWYRQAPGKERELVADISVGGGSTYYADSVKGRFTISRDNAKNTVYLQMNSLKPEDTAVYYCAASYYSGQSVRDDIMYYWGQGTQVTVSS”: the “polyreactivity (PSR sort gate)” value is on record as “low polyreactivity”.

On to “QVQLVESGGGLVQAGGSLRLSCAASGSIFYINAMGWYRQAPGKEREFVATITWSGDSTYYADSVKGRFTISRDNAKNTVYLQMNSLKPDDTAVYYCNARKQYPSYVDWEYDYWGQGTQVTVSS”, for which the “polyreactivity (PSR sort gate)” value is “low polyreactivity”.
